The supplement of paper PMC12042874
± gives the uncertainty stated by the source.

Assay: amyloid nucleation score (Sup35N fusion, yeast selection) (log enrichment); library NNK3; higher = more nucleation; inactive = no reads after selection
In short: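 Peptides of 20 random codons fused to Sup35N were expressed in psi-negative yeast, induced 24 hours with 100 μM copper sulfate, then grown 7 days at 30°C on medium lacking adenine and uracil. Input and output plasmid inserts were Illumina-sequenced. Nucleation score is the DiMSum log enrichment of output over input reads, centred on the mode score of non-aggregating sequences, excluding sequences with under 100 input reads. Random libraries had three technical output replicates.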
For LVLLHVLGERSSAPRRTVMR, the amyloid nucleation score was “inactive”. In the case of DVAWHRSACEYLFM, the amyloid nucleation score is reported as “inactive”. With CMVNFS the amyloid nucleation score was “inactive”. For QYSMVVVV, the amyloid nucleation score was “inactive”. For IMVCKWTSPTSTMPHDDLGC, the amyloid nucleation score was “inactive”. For GFVIYLNVALLVRSNINRVC, the amyloid nucleation score was “inactive”. AILYTRHG showed an amyloid nucleation score of 0.082 ± 0.38. For SSNNQMWTELITYCLRCAWV, the amyloid nucleation score was “inactive”. For QRIEYA, the amyloid nucleation score was “inactive”. GCNYTVSTYILRVSDFTYYM showed an amyloid nucleation score of -0.585 ± 0.76. For TYLGDSFSILHLIQGDWFIE, the amyloid nucleation score was “inactive”. With PVTVFWVTMTSWYVNIRG the amyloid nucleation score was “inactive”. With LEPDNYTLGGTKSTTTFAHR the amyloid nucleation score was “inactive”. YSYTILHNFNKCSVKTLIFF gave an amyloid nucleation score of 2.38 ± 0.058. Substance LNILF has an amyloid nucleation score of 0.826 ± 0.11. In the case of TMIFMLVI, the amyloid nucleation score is reported as “inactive”. With CLVGPVHPMFVL the amyloid nucleation score was “inactive”. IYVVLQTWHNYAMLTITGLV showed an amyloid nucleation score of 0.228 ± 0.67. In the case of MLIYSIVLGFKFSPPGFTSN, the amyloid nucleation score is reported as “inactive”. In the case of GRVESSVIYRPLNLGGGQES, the amyloid nucleation score is reported as “inactive”. In the case of ETSITHLGILAVLGCNNGSE, the amyloid nucleation score is reported as “inactive”. With LHGCTEITKGNYLPNNAVD the amyloid nucleation score was “inactive”. In the case of QGNCLFVKVG, the amyloid nucleation score is reported as “inactive”. For WGQMR, the amyloid nucleation score was 0.456 ± 0.37. With SRSPNFQKFLHCMTTSN the amyloid nucleation score was “inactive”. In the case of SLNMLDFFYSLFGVCNKTVL, the amyloid nucleation score is reported as “inactive”. In the case of FMWCYMKYCAVHAFDLSWKV, the amyloid nucleation score is reported as “inactive”. In the case of GNKQVVNWDGYF, the amyloid nucleation score is reported as -0.431 ± 0.96. With VTVRKFMVSLWSGGPTWDGR the amyloid nucleation score was “inactive”. For CLPSVRQKGSWRLR, the amyloid nucleation score was -0.338 ± 0.82. With DRTTSVGPYSAVLGFMCDWW the amyloid nucleation score was “inactive”. For YTCNST, the amyloid nucleation score was “inactive”. For EVSHSVEQYFSFMCHHTWAP, the amyloid nucleation score was “inactive”. With LINVPDGSSSKLSDMV the amyloid nucleation score was “inactive”. With SYDNWWCVILMRNQGRCAWG the amyloid nucleation score was “inactive”. Work on CFLVTVSSGTASMQVLGRSG yielded an amyloid nucleation score of 1.23 ± 0.14. In the case of VAGSRCMDAWVKWCMVIRMF, the amyloid nucleation score is reported as 0.247 ± 0.25. CNYCALLTCLRGMPN gave an amyloid nucleation score of 1.16 ± 0.12. In the case of YRYFGTAAMKRICHRNSIVS, the amyloid nucleation score is reported as “inactive”. For LPDEEHVRYVCYLYDM, the amyloid nucleation score was “inactive”. For GSLPFLSYLGRVKCGERRSS, the amyloid nucleation score was “inactive”. In the case of LDVPWRTFLNGFHSFLT, the amyloid nucleation score is reported as “inactive”. For NWRPV, the amyloid nucleation score was “inactive”. In the case of ELLSCLKIWDIL, the amyloid nucleation score is reported as “inactive”. In the case of NLWYLVMLISDFCEPRKEWY, the amyloid nucleation score is reported as “inactive”. In the case of ANKSTIGLFMRLPYCPGSN, the amyloid nucleation score is reported as -0.148 ± 0.96. For CCRFAVLRRLERSDQKGVWI, the amyloid nucleation score was “inactive”. For EPGILLM, the amyloid nucleation score was “inactive”. With LWRKMVVPYFYP the amyloid nucleation score was “inactive”. In the case of LDVYTVTGRDW, the amyloid nucleation score is reported as “inactive”. With YLTVWFTKKLCVLFLFNIWK the amyloid nucleation score was “inactive”. For MYIVRRKTICET, the amyloid nucleation score was “inactive”. For RSTWFSFFRRTAHWKKALRP, the amyloid nucleation score was “inactive”. With FLFIHKLTCLSLVKWTGFLV the amyloid nucleation score was “inactive”. For TSRTGRMEYISRELGQRVWM, the amyloid nucleation score was “inactive”. In the case of SFMITFLIMRHVASFA, the amyloid nucleation score is reported as “inactive”. With VMRGASYFPTELADDDLMPG the amyloid nucleation score was “inactive”. With NSCTDSGPMGTSFSCTLGF the amyloid nucleation score was “inactive”. With TRFLFCFNWIWGEPVACEYE the amyloid nucleation score was 2.39 ± 0.07. Substance SAIPKGKATITFPPLKSFVR has an amyloid nucleation score of 1.02 ± 0.13. With YFINMRKYCTCPDMCEVLRI the amyloid nucleation score was 0.574 ± 0.18. In the case of DVMEVNLVPRAFNLCSSSGL, the amyloid nucleation score is reported as “inactive”. With HFSSYDTDRINAVPKIWTIR the amyloid nucleation score was “inactive”. With QHKQVNGFTITYTLGHCYTY the amyloid nucleation score was “inactive”. With CMFFLLPIIAYSV the amyloid nucleation score was “inactive”. With FQFNILNSVSGLCICYDSGH the amyloid nucleation score was 3.41 ± 0.081. For GFLKCVGVRLDDSRGVVCAT, the amyloid nucleation score was “inactive”. For YDMFMVSWLKEIDWMQDDPR, the amyloid nucleation score was “inactive”. In the case of MVHAVPHMVDGGS, the amyloid nucleation score is reported as “inactive”. For LLVAYPHYAGFCTAVSSKSG, the amyloid nucleation score was “inactive”. In the case of MMRNTDK, the amyloid nucleation score is reported as “inactive”. For RFTCKYLPTLLTGVIRGPSP, the amyloid nucleation score was “inactive”. With TSSWYFILDVHCGSEGNSEA the amyloid nucleation score was 0.438 ± 0.28. In the case of MSNRVMLKNYSLELEEIGRK, the amyloid nucleation score is reported as “inactive”. For GVIFEISVSCVQTFCPFHYL, the amyloid nucleation score was 1.21 ± 0.093. With MGKKSAHLSYRICVQCGKDG the amyloid nucleation score was “inactive”. In the case of SFSVTMPMPIYTTLNGPLTN, the amyloid nucleation score is reported as “inactive”. With GWRRPNSYDLEAEFMRKSGG the amyloid nucleation score was “inactive”. In the case of GIYRLGVNHGMFSCLM, the amyloid nucleation score is reported as “inactive”. With LARRNTLVEGHDD the amyloid nucleation score was “inactive”. Work on SVRVSIFRGLVRNRWKFDGF yielded an amyloid nucleation score of 0.666 ± 0.16. For DSRFEWLLTLYYRFYLHNGR, the amyloid nucleation score was “inactive”. Substance DQAIVLVNFVSASSVPPKIF has an amyloid nucleation score of 0.498 ± 0.25. In the case of PTIHGVMGVEPMSYSLL, the amyloid nucleation score is reported as “inactive”. In the case of QTRVHLFAREPPCFTEFNER, the amyloid nucleation score is reported as “inactive”. For MMFDYLLLRGHNAQIQLWWY, the amyloid nucleation score was “inactive”. Substance MTVSVITAMGFTIGFFADNQ has an amyloid nucleation score of 0.494 ± 0.26. With IIYPLMKAWISDMLMVISIS the amyloid nucleation score was “inactive”. With RPRLYFLTSNLKTQCAVHNA the amyloid nucleation score was “inactive”. With VYQQSWQVLDFVRWDTERME the amyloid nucleation score was “inactive”. NCMFWGCVTLRADFVRTINR gave an amyloid nucleation score of 1.5 ± 0.14. FFFVMSRRANVIGSLEDRSD showed an amyloid nucleation score of 0.936 ± 0.11. With RWWKKTIQIFKCFVKHLEWG the amyloid nucleation score was “inactive”. With LFTWKCDLGSRRAKGSGLGS the amyloid nucleation score was 1.42 ± 0.13. For YTFRCIYRADYNTP, the amyloid nucleation score was “inactive”. For SLIDHYLSDLSKKS, the amyloid nucleation score was “inactive”. With PPPCKYLPAEVGLLFKSSLG the amyloid nucleation score was “inactive”. For GPPAEASHKLWPASPRDRCP, the amyloid nucleation score was “inactive”. For VFGKCLCTNCLEEVCIRFDL, the amyloid nucleation score was “inactive”. In the case of SSLQHSAW, the amyloid nucleation score is reported as “inactive”. With RQLVNCQGFVLYTREMDFEA the amyloid nucleation score was “inactive”. For SPMRLLGSSFGQ, the amyloid nucleation score was “inactive”. In the case of DNLFSETSYVVRFARFL, the amyloid nucleation score is reported as “inactive”. For HPIANVV, the amyloid nucleation score was “inactive”. For CDFREVTLDY, the amyloid nucleation score was “inactive”. In the case of LSPPLVSWGGPTVRMGKCSG, the amyloid nucleation score is reported as “inactive”. For ICRRPYFSHLRSHRGFQNTD, the amyloid nucleation score was “inactive”. With DGHMDR the amyloid nucleation score was “inactive”. With SCNQKMGHLNFCNFFWTLTV the amyloid nucleation score was “inactive”. With SFFCN the amyloid nucleation score was “inactive”. With GKLCYYSVYWESALNQPRSS the amyloid nucleation score was “inactive”. In the case of QNFRIYTVSLLNNRYDELIS, the amyloid nucleation score is reported as “inactive”. With AFGYKFGSANEAVRMLLSLV the amyloid nucleation score was “inactive”. For DFGSDSVDRIPRTGADNSI, the amyloid nucleation score was “inactive”. For MHNKVGPYTD, the amyloid nucleation score was “inactive”. For NSPNTNVPGFSRGAFAGGRH, the amyloid nucleation score was “inactive”. For HIWTIRVMFWRELRLLITPI, the amyloid nucleation score was “inactive”. For CRNSEKVWDPQRTVRALSRF, the amyloid nucleation score was “inactive”. In the case of LAPGRLCLMGIKRTTSWWSS, the amyloid nucleation score is reported as “inactive”. With TWCFDSACNANGTWR the amyloid nucleation score was “inactive”. For TCEWQRTCNPVGMSYKWSRG, the amyloid nucleation score was “inactive”. In the case of SSLIWNLSCELLTWLHVRRW, the amyloid nucleation score is reported as -1.3 ± 2.5. For GWWVRHSWGDGSVASVCIKM, the amyloid nucleation score was “inactive”. In the case of SLMKGCTLLDSFRLRKP, the amyloid nucleation score is reported as “inactive”. In the case of QQPTYKYDDDKNFDSYWLAN, the amyloid nucleation score is reported as “inactive”. With MKYRTALHTF the amyloid nucleation score was -0.961 ± 1.9. For YKRFMIPIKYCGGQRNTDVR, the amyloid nucleation score was “inactive”. In the case of YYVVVQADVGNI, the amyloid nucleation score is reported as “inactive”. For MKGCWFWKVIENFHIKSHCR, the amyloid nucleation score was “inactive”. FTSGTMVFTRLFRSNQQWWS gave an amyloid nucleation score of 1.53 ± 0.13. For QERTKSFWPLLLALALPSDQ, the amyloid nucleation score was “inactive”. With VKSFFSKGSCDNDTNINRRS the amyloid nucleation score was “inactive”. For VHTYLSAEWLVFPRHFAVYK, the amyloid nucleation score was “inactive”. For IDVRGSMYGVMMYHSTRDVT, the amyloid nucleation score was “inactive”. For IIGWASWCVGKGHLTFCQLV, the amyloid nucleation score was “inactive”. With YNVRSFLTKVEWTYYFS the amyloid nucleation score was 0.391 ± 0.16. For SFYEEGFVSYLDIRGIVYGA, the amyloid nucleation score was “inactive”. For PELVFPMLADRPVRAQKLPC, the amyloid nucleation score was “inactive”. For NVRNLGRSFNWMSSCGNLCD, the amyloid nucleation score was “inactive”. Substance NITFISSWIMQEYTFVLCSF has an amyloid nucleation score of 1.96 ± 0.065. In the case of SGVSFDSIGVSVLQTHGGLR, the amyloid nucleation score is reported as “inactive”. SVIYIWDG showed an amyloid nucleation score of 0.425 ± 0.43. In the case of VLACSHWLMLSRTKYMMRIV, the amyloid nucleation score is reported as “inactive”. In the case of WETLLKPWQA, the amyloid nucleation score is reported as “inactive”. With NFIYILLSIINYWWCTYIVY the amyloid nucleation score was “inactive”. For FLILVGLGRIDLMGTIIKKR, the amyloid nucleation score was “inactive”. For HYRFNNACLDRGHSEGYWRI, the amyloid nucleation score was “inactive”. With VFTPLCAYVVGYLYEVCGDD the amyloid nucleation score was “inactive”. With FMKSRINIRIALWCF the amyloid nucleation score was “inactive”. With GIVYKRVYRMWVHVAEAESR the amyloid nucleation score was “inactive”. Substance NNSSSMSLINKSTCCLDWSS has an amyloid nucleation score of 2.02 ± 0.063. CCIIYVVRRGE showed an amyloid nucleation score of 1.28 ± 0.096. In the case of ITPWCFLVSCIRVSYAIVPT, the amyloid nucleation score is reported as “inactive”. For TNNEDKFWRVVLNLGTVTSD, the amyloid nucleation score was “inactive”. With INCSLENLINKDLWVSSQVC the amyloid nucleation score was “inactive”. With FLTDRPYRGCG the amyloid nucleation score was “inactive”.
